20 sequences from the Immune Epitope Database (IEDB) can be followed below.

One experiment has as its target HLA-A*02:01. The experiment is described as follows: IEDB peptide-MHC binding, purified MHC/competitive/fluorescence; filed as Kd, often an IC50 or EC50 that approximates it; ≥ and ≤ were set here for values at or beyond the usual limits of such assays. The note with it: source organism: Vaccinia virus Copenhagen.
The target of another experiment is HLA-A*32:01. The experiment is described as follows: IEDB peptide-MHC binding, purified MHC/competitive/radioactivity; filed as Kd, often an IC50 or EC50 that approximates it; ≥ and ≤ were set here for values at or beyond the usual limits of such assays.
For another experiment, the target named is HLA-A*01:01. Described as above.
A further experiment has as its target HLA-A*23:01. The experiment is described as above.
The next experiment concerns the target HLA-A*24:02. Described as above.
The target in the next experiment is HLA-A*26:01. The description is as above.
The target in another experiment is HLA-A*29:02. The experiment is described as above.
Another experiment has as its target HLA-A*30:02. The description is as above.
The target in another experiment is HLA-A*30:01. Described as above.
The target in a further experiment is HLA-A*03:01. The experiment is described as above. Particulars: source organism: Triticum aestivum.
The next experiment deals with HLA-A*11:01. The experiment is described as above. The note with it: source organism: Triticum aestivum.
The target in another experiment is HLA-A*31:01. The experiment is described as above. The note with it: source organism: Triticum aestivum.
The target in another experiment is HLA-A*33:01. Described as above. Particulars: source organism: Triticum aestivum.
In another experiment the target is HLA-A*68:01. The experiment is described as above. The note with it: source organism: Triticum aestivum.
A further experiment addresses HLA-B*40:01. The description is as above. Particulars: source organism: Dengue virus 2 Jamaica/1409/1983.
Setting [1] is: source organism: Vaccinia virus WR.
Setting [2] is: source organism: Mammarenavirus lassaense.
Setting [3] is: source organism: SARS coronavirus Tor2.
Setting [4] is: source organism: Lymphocytic choriomeningitis virus (strain Armstrong).
The mark [5] stands for this setting: source organism: Mammarenavirus machupoense.
The mark [6] stands for this setting: source organism: Mammarenavirus whitewaterense.
Setting [7] is: source organism: Triticum aestivum.
Where [8] appears, read: source organism: Mammarenavirus guanaritoense.
Where [9] appears, read: source organism: Mammarenavirus choriomeningitidis.

pKd: −log10 of the molar value.

MLVSQALNSV had a pKd with HLA-A*02:01 of 8.47.

Regarding MTNTMRNAI, the pKd with HLA-A*32:01 (setting [1]) was 6.97.

On to PEDPVEVALY, for which the pKd with HLA-A*01:01 (setting [2]) was no more than 4.39; in the experiment with HLA-A*23:01 (setting [2]), no more than 4.15; in the experiment with HLA-A*24:02 (setting [2]), no more than 4.15; with HLA-A*26:01 (setting [2]), no more than 4.16; with HLA-A*29:02 (setting [2]), no more than 4.36; with HLA-A*30:02 (setting [2]), 5.84.

As to QMYKTPTLKY, the pKd with HLA-A*01:01 (setting [3]) was 5.05; with HLA-A*23:01 (setting [3]), no more than 4.15; in the experiment with HLA-A*24:02 (setting [3]), no more than 4.15; in the experiment with HLA-A*26:01 (setting [3]), 5.51; in the experiment with HLA-A*29:02 (setting [3]), 8.17; in the experiment with HLA-A*30:02 (setting [3]) it was 7.26.

As for QYLIIQNRTW, the pKd with HLA-A*23:01 (setting [4]) is 7.24; in the experiment with HLA-A*24:02 (setting [4]) it was 6.16; with HLA-A*29:02 (setting [4]), 6.16.

Consider RCWLIRNGSY, for which the pKd with HLA-A*01:01 (setting [5]) is no more than 4.42; with HLA-A*23:01 (setting [5]), no more than 4.46; with HLA-A*24:02 (setting [5]) it was no more than 4.15; in the experiment with HLA-A*26:01 (setting [5]), no more than 4.16; with HLA-A*29:02 (setting [5]) it was 5.32; in the experiment with HLA-A*30:02 (setting [5]) it was 7.79.

On to RCWLTKNGSY, for which the pKd is 4.72 with HLA-A*01:01 (setting [6]); no more than 4.15 with HLA-A*23:01 (setting [6]); no more than 4.15 in the experiment with HLA-A*24:02 (setting [6]); no more than 4.63 with HLA-A*26:01 (setting [6]); 5.05 with HLA-A*29:02 (setting [6]); 5.42 with HLA-A*30:01 (setting [6]). For the same sequence, the values for the pKd in the experiment with HLA-A*30:02 (setting [6]) and in the experiment with HLA-A*32:01 (setting [6]) were 7.24 and no more than 4.16, respectively.

In the case of RMLLNRFTM, the pKd with HLA-A*32:01 (source organism: Dengue virus 1 Brazil/97-11/1997) was 7.71.

Consider SFQQPQQQY, for which the negative-log Kd (pKd) in the experiment with HLA-A*01:01 (setting [7]) was no more than 4.16; with HLA-A*03:01 it was no more than 4.11; with HLA-A*11:01 it was no more than 4.11; with HLA-A*23:01 (setting [7]), no more than 4.11; with HLA-A*24:02 (setting [7]), no more than 4.11; in the experiment with HLA-A*26:01 (setting [7]), no more than 4.36. Besides, the pKd was 7.08 in the experiment with HLA-A*29:02 (setting [7]); no more than 4.20 with HLA-A*30:02 (setting [7]); no more than 4.11 with HLA-A*31:01; no more than 4.11 in the experiment with HLA-A*33:01; no more than 4.11 with HLA-A*68:01.

With SMSEIINNI, in the experiment with HLA-A*32:01 (setting [1]), the pKd was 6.61.

For the sequence SRAWNVWEVE, in the experiment with HLA-A*32:01 (source organism: Dengue virus 3 Martinique/1243/1999), the negative logarithm of the Kd (pKd) is no more than 4.58.

Consider SWLDFDEKLV, for which the pKd with HLA-A*01:01 (setting [8]) was 5.21; with HLA-A*23:01 (setting [8]), 6.49; with HLA-A*24:02 (setting [8]) it was 4.85; with HLA-A*26:01 (setting [8]), no more than 4.16; with HLA-A*29:02 (setting [8]), no more than 4.15; with HLA-A*30:02 (setting [8]) it was 5.31.

Take TEEIAVQNWL: the negative-log Kd (pKd) with HLA-B*40:01 was 6.98.

Regarding TSQKSIVAY, the pKd in the experiment with HLA-A*01:01 (setting [3]) is 5.93; with HLA-A*23:01 (setting [3]), no more than 4.11; in the experiment with HLA-A*24:02 (setting [3]), no more than 4.11; in the experiment with HLA-A*26:01 (setting [3]), 5.08; with HLA-A*29:02 (setting [3]), 5.68; with HLA-A*30:02 (setting [3]), 7.60.

In the case of VGRAWENTI, the pKd in the experiment with HLA-A*01:01 (setting [2]) was no more than 4.57; with HLA-A*23:01 (setting [2]) it was 5.53; with HLA-A*24:02 (setting [2]), 5.06; with HLA-A*26:01 (setting [2]), no more than 4.11; in the experiment with HLA-A*29:02 (setting [2]), no more than 4.10; with HLA-A*30:02 (setting [2]), 7.00.

VLEDVQAAGI: in the experiment with HLA-A*02:01, the negative-log Kd (pKd) is 6.64.

Regarding VTERIFREY, the pKd is 8.06 with HLA-A*01:01 (setting [9]); no more than 4.35 in the experiment with HLA-A*26:01 (setting [9]); 5.06 with HLA-A*29:02 (setting [9]); 5.40 with HLA-A*30:01 (setting [9]); 6.06 with HLA-A*30:02 (setting [9]); 4.89 in the experiment with HLA-A*32:01 (setting [9]).

As for VYIGDPAQL, the pKd was no more than 4.11 with HLA-A*01:01 (setting [3]); 5.93 with HLA-A*23:01 (setting [3]); 6.97 with HLA-A*24:02 (setting [3]); no more than 4.11 with HLA-A*26:01 (setting [3]); no more than 4.64 with HLA-A*29:02 (setting [3]); no more than 4.10 with HLA-A*30:02 (setting [3]).

On to WCEFVDFSV, for which the pKd with HLA-A*01:01 (setting [8]) was 6.47; with HLA-A*23:01 (setting [8]), no more than 4.27; in the experiment with HLA-A*24:02 (setting [8]), no more than 4.11; in the experiment with HLA-A*26:01 (setting [8]) it was no more than 4.11; in the experiment with HLA-A*29:02 (setting [8]), 5.61; with HLA-A*30:02 (setting [8]), 5.10.

With YEEFCNAVY, the pKd with HLA-A*01:01 (setting [2]) was 5.27; with HLA-A*23:01 (setting [2]), 5.00; in the experiment with HLA-A*24:02 (setting [2]) it was no more than 4.11; with HLA-A*26:01 (setting [2]), no more than 4.11; with HLA-A*29:02 (setting [2]), 6.37; with HLA-A*30:02 (setting [2]), 6.12.
